# Tests used:
# Assay in all cases: cell-based or functional assay
# [1] = target: HIV-1 envelope of pseudovirus YU-2 (HIV-1)
# [2] = target: HIV-1 envelope spike of pseudovirus SC422661.8 (HIV-1)
# [3] = target: HIV-1 Env of pseudovirus MS208.A1 (HIV-1)
# [4] = target: HIV-1 Env of pseudovirus 6041.v3.c23 (HIV-1)
# [5] = target: HIV-1 Env of pseudovirus WEAU_d15_410_787 (HIV-1)
# [6] = target: HIV-1 Env of pseudovirus ZM109F.PB4 (HIV-1)
# [7] = target: HIV-1 Env of pseudovirus BJOX025000.01.1 (HIV-1)
# [8] = target: HIV-1 envelope of pseudovirus R1166.c01 (HIV-1)
# [9] = target: HIV-1 Env of pseudovirus Ce0682_E4 (HIV-1)
# [10] = target: HIV-1 envelope of pseudovirus CNE58 (HIV-1)
# [11] = target: HIV-1 Env of pseudovirus YU-2 (HIV-1) (UniProt P35961)
# HIV-1 Env of pseudovirus YU-2 (HIV-1), sequence (P35961 32-843 limits assumed): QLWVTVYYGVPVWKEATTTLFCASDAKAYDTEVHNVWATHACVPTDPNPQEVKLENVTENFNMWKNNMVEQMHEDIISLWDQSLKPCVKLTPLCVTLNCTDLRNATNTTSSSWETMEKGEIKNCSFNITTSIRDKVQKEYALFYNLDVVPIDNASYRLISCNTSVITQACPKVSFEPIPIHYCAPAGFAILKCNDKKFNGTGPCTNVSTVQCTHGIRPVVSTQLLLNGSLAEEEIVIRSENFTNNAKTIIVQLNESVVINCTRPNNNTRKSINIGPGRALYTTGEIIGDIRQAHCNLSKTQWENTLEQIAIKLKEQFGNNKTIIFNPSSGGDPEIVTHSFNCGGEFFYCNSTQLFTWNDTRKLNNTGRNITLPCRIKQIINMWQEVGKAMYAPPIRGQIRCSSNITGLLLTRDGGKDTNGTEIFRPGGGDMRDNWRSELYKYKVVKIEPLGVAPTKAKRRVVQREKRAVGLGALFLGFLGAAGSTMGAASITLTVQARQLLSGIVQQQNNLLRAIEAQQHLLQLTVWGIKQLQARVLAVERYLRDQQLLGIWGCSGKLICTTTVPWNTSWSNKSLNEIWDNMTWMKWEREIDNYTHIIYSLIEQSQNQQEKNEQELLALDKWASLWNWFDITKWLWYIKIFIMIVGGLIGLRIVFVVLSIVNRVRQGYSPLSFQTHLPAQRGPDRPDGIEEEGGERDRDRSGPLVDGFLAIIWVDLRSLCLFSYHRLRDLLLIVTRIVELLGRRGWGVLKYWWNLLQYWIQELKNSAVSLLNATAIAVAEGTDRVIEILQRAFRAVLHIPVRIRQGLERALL
# [12] = target: HIV-1 Env of pseudovirus BJOX010000.06.2 (HIV-1)
# [13] = target: HIV-1 envelope of pseudovirus Q769.d22 (HIV-1)
# [14] = target: HIV-1 Env of pseudovirus BF1266.431a (HIV-1)
# [15] = target: HIV-1 Env of pseudovirus T257-31 (HIV-1)
# [16] = target: HIV-1 Env of pseudovirus X1254_c3 (HIV-1)
# [17] = target: HIV-1 envelope of pseudovirus Ce2060_G9 (HIV-1)
# [18] = target: HIV-1 Env of pseudovirus C3347.c11 (HIV-1)
# [19] = target: HIV-1 Env of pseudovirus Ce1086_B2 (HIV-1)
# [20] = target: HIV-1 Env of pseudovirus 1054_07_TC4_1499 (HIV-1)
# [21] = target: HIV-1 envelope of pseudovirus 6540.v4.c1 (HIV-1)
# [22] = target: HIV-1 Env of pseudovirus HIV-16055-2.3 (HIV-1)
# [23] = target: HIV-1 envelope spike of pseudovirus QH0692.42 (HIV-1)
# [24] = target: HIV-1 envelope of pseudovirus CNE17 (HIV-1)
# [25] = target: HIV-1 Env of pseudovirus CNE30 (HIV-1)
# [26] = target: HIV-1 Env of pseudovirus 231966.c02 (HIV-1)
# [27] = target: HIV-1 envelope of pseudovirus 0260.v5.c36 (HIV-1)
# [28] = target: HIV-1 Env of pseudovirus 620345.c01 (HIV-1)
# [29] = target: HIV-1 envelope of pseudovirus Q451.e2 (HIV-1)
# [30] = target: HIV-1 envelope of pseudovirus Q842.d12 (HIV-1)
# [31] = target: HIV-1 Env of pseudovirus 6535.3 (HIV-1)
# [32] = target: HIV-1 envelope spike of pseudovirus 6535.3 (HIV-1)
# [33] = target: HIV-1 Env of pseudovirus THRO4156.18 (HIV-1)
# [34] = target: HIV-1 envelope of pseudovirus Ce1086_B2 (HIV-1)
# [35] = target: HIV-1 Env of pseudovirus 928-28 (HIV-1)
# [36] = target: HIV-1 Env of pseudovirus CAAN5342.A2 (HIV-1)
# [37] = target: HIV-1 envelope of pseudovirus R2184.c04 (HIV-1)
# [38] = target: HIV-1 envelope of pseudovirus 246F C1G (HIV-1)
# [39] = target: HIV-1 Env of pseudovirus R2184.c04 (HIV-1)
# [40] = target: HIV-1 Env of pseudovirus C2101.c01 (HIV-1)
# [41] = target: HIV-1 envelope of pseudovirus BJOX028000.10.3 (HIV-1)
# [42] = target: HIV-1 Env of pseudovirus 7030102001E5(Rev-) (HIV-1)
# [43] = target: HIV-1 envelope of pseudovirus CNE8 (HIV-1)
# [44] = target: HIV-1 Env of pseudovirus 249M B10 (HIV-1)
# [45] = target: HIV-1 Env of pseudovirus ZM135M.PL10a (HIV-1)
# [46] = target: HIV-1 envelope of pseudovirus BJOX010000.06.2 (HIV-1)
# [47] = target: HIV-1 envelope of pseudovirus 191821_E6_1 (HIV-1)
# [48] = target: HIV-1 Env of pseudovirus Ce2060_G9 (HIV-1)
# [49] = target: HIV-1 Env of pseudovirus 3415.v1.c1 (HIV-1)
# [50] = target: HIV-1 Env of pseudovirus TRJO4551.58 (HIV-1)
# 10-996 (antibody), sequence (VH): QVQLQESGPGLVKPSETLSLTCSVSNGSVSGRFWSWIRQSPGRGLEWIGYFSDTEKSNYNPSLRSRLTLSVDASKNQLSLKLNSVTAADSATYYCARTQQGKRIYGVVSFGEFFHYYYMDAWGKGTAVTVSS
# 10-996 (antibody), sequence (VL): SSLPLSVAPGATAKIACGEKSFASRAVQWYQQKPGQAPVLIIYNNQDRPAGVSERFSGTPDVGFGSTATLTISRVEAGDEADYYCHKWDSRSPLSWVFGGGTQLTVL
substance,measurement,setting,value
10-996 (antibody),IC50 (TZM-bl neutralization),[1],0.256 µg/mL
same,IC50 (TZM-bl neutralization assay),[2],0.255 µg/mL
same,IC80 (TZM-bl neutralization assay),[2],0.845 µg/mL
same,IC80 (TZM-bl neutralization),[3],> 50 µg/mL
same,IC80 (TZM-bl neutralization),[4],> 50 µg/mL
same,IC80 (TZM-bl neutralization),[5],0.422 µg/mL
same,IC80 (TZM-bl neutralization),[6],> 50 µg/mL
same,IC80 (TZM-bl neutralization),[7],> 50 µg/mL
same,IC50 (TZM-bl neutralization),[8],> 50 µg/mL
same,IC80 (TZM-bl neutralization),[9],> 50 µg/mL
same,IC50 (TZM-bl neutralization),[10],0.57 µg/mL
same,IC80 (TZM-bl neutralization),[11],0.891 µg/mL
same,IC80 (TZM-bl neutralization),[12],> 50 µg/mL
same,IC50 (TZM-bl neutralization),[13],> 50 µg/mL
same,IC80 (TZM-bl neutralization),[14],> 50 µg/mL
same,IC80 (TZM-bl neutralization),[15],> 50 µg/mL
same,IC80 (TZM-bl neutralization),[16],0.42 µg/mL
same,IC50 (TZM-bl neutralization),[17],> 50 µg/mL
same,IC80 (TZM-bl neutralization),[18],> 50 µg/mL
same,IC80 (TZM-bl neutralization),[19],> 50 µg/mL
same,IC80 (TZM-bl neutralization),[20],0.901 µg/mL
same,IC50 (TZM-bl neutralization),[21],> 50 µg/mL
same,IC80 (TZM-bl neutralization),[22],> 50 µg/mL
same,IC50 (TZM-bl neutralization assay),[23],0.395 µg/mL
same,IC80 (TZM-bl neutralization assay),[23],1.4 µg/mL
same,IC50 (TZM-bl neutralization),[24],4.04 µg/mL
same,IC80 (TZM-bl neutralization),[25],1.99 µg/mL
same,IC80 (TZM-bl neutralization),[26],> 50 µg/mL
same,IC50 (TZM-bl neutralization),[27],0.16 µg/mL
same,IC80 (TZM-bl neutralization),[28],> 50 µg/mL
same,IC50 (TZM-bl neutralization),[29],> 50 µg/mL
same,IC50 (TZM-bl neutralization),[30],> 50 µg/mL
same,IC80 (TZM-bl neutralization),[31],0.046 µg/mL
same,IC50 (TZM-bl neutralization assay),[32],0.018 µg/mL
same,IC80 (TZM-bl neutralization assay),[32],0.085 µg/mL
same,IC80 (TZM-bl neutralization),[33],> 50 µg/mL
same,IC50 (TZM-bl neutralization),[34],> 50 µg/mL
same,IC80 (TZM-bl neutralization),[35],7.15 µg/mL
same,IC80 (TZM-bl neutralization),[36],0.079 µg/mL
same,IC50 (TZM-bl neutralization),[37],> 50 µg/mL
same,IC50 (TZM-bl neutralization),[38],0.092 µg/mL
same,IC80 (TZM-bl neutralization),[39],> 50 µg/mL
same,IC80 (TZM-bl neutralization),[40],> 50 µg/mL
same,IC50 (TZM-bl neutralization),[41],> 50 µg/mL
same,IC80 (TZM-bl neutralization),[42],0.044 µg/mL
same,IC50 (TZM-bl neutralization),[43],> 50 µg/mL
same,IC80 (TZM-bl neutralization),[44],> 50 µg/mL
same,IC80 (TZM-bl neutralization),[45],0.553 µg/mL
same,IC50 (TZM-bl neutralization),[46],> 50 µg/mL
same,IC50 (TZM-bl neutralization),[47],> 50 µg/mL
same,IC80 (TZM-bl neutralization),[48],> 50 µg/mL
same,IC80 (TZM-bl neutralization),[49],> 50 µg/mL
same,IC80 (TZM-bl neutralization),[50],7.27 µg/mL

# From US12338277
